The term Kd denotes the constant that tells how readily two partners part at equilibrium. Low readings indicate tighter binding, high ones weaker binding. As usually defined, the koff is the first-order rate constant of dissociation. As a reminder, the kon is the rate constant with which the complex forms. A low value points to slower complex formation.

The text below walks through data of PMC11645210 (Cell, 2024).

Assay in all cases: SPR
Details in all cases: both partners purified

One test addresses T1, SARS-CoV-1 Urbani RBD (SARS-CoV-1 Urbani).
T1 construct: source: Expi293F, purified (cobalt IMAC, SEC)

The next test addresses T2, SARS-CoV-1 (Urbani) RBD (SARS-CoV-1 Urbani).
T2 construct: source: Expi293F, purified (cobalt IMAC, SEC)

The next test concerns the target T3, WIV1 RBD (Bat SARS-like coronavirus WIV1).
T3 construct: source: Expi293F, purified (cobalt IMAC, SEC)

Test [1] has as its target T4, SARS-CoV-2 Wuhan-Hu-1 RBD (SARS-CoV-2, UniProt P0DTC2).
T4 construct: source: Expi293F, purified (cobalt IMAC, SEC)

B1: VIR-7229 Fab (obtained by fragmentation of the IgG) (Fab, V domains shown)
VH: EVQLVESGGSVVQPGRALRLSCAASGITFSSFGMYWVRQAPGKGLEWLGYIAYDGSDTYYADSVKGRFTISRDNSKNTLYLQMNSLRIEDTAVYYCAKDYYPLLSYYYGLDVWGQGTTVTVSS
VL: QSVLTQPRSVSGSPGQSVTISCTGTSSDVGAYNYVSWYQQHPGKAPKFMIYDVDQRPSGVPDRFSGSKSGNTASLIISGLQAEDEADYYCSSYAGSYIWVFGGGTQLTVL
In the case of B1, the binding result with SARS-CoV-1 Urbani RBD is listed as “binds”.

B2: VIR-7229 Fab fragment (Fab, V domains shown)
VH: B1 VH
VL: B1 VL
notes: source: ExpiCHO (IgG1); Fab by fragmentation of the IgG with the FabLACTICA Fab kit
For the molecule B2, the figures for the Kd (with SARS-CoV-1 (Urbani) RBD; with WIV1 RBD; in test [1]) were 2.46 nM, 7.85 nM and 0.185 nM, respectively. Moreover, the results for the koff (in the test with SARS-CoV-1 (Urbani) RBD; with WIV1 RBD; in test [1]) were 0.000912 s⁻¹, 0.00304 s⁻¹ and 3.67e-05 s⁻¹, respectively. Further, the kon with SARS-CoV-1 (Urbani) RBD came out at 375000 M⁻¹ s⁻¹; in the test with WIV1 RBD, 387000 M⁻¹ s⁻¹; in test [1] it was 199000 M⁻¹ s⁻¹.
